In the supplement of paper PMC10567573:

B1: CDC14A (parent)
chain: LWVQGDIFRSKLKNRPSSEGSINK
B2: STX11 (parent)
chain: FQRAMHDYNQAEMKQRDNCKIRIQ

Variants of: B1
Experiment: protein stability index of a GFP-peptide fusion (GPS, HEK-293T) (PSI 1-6); higher = more stable
Settings: c terminus: a fixed tail appended
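Also: lentivirally expressed fusions sorted by FACS into six bins by GFP to DsRed ratio, PSI derived from sequencing read proportions per bin multiplied by bin number.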

Protein stability index: each site, then its substitutions
Q4: K 2.19 | L 2.62 | H 2.67 | E 2.19 | F 1.73 | C 2.46 | I 2.11 | A 1.9
L1: H 3.37 | F 1.75 | G 3.03 | E 4.43 | Y 2.43 | M 2.79 | Q 2.79 | D 4.57 | A 3.37 | K 3.49 | I 2.17 | N 4.3 | W 2.3 | S 4.05 | C 3.69 | P 3.75 | R 4.17 | T 4.24 | V 2.2
V3: L 2.07 | N 2.71 | S 3.06 | G 3.18 | P 3.94 | T 3.12 | H 1.99 | E 4.85 | F 2.64 | R 3.34 | C 2.94 | D 3.58 | Q 3.32 | M 2.73 | K 3.26 | A 3.45 | W 2.55 | Y 2.89
W2: G 4.04 | S 4.49 | H 3.81 | E 5.28 | M 3.48 | D 4.4 | R 3.46 | P 4.26 | V 2.6 | Y 2.67 | N 4.07 | T 4.6 | A 4.05 | I 2.51 | F 3.07 | L 2.98 | K 3.74 | C 3.8 | Q 4.28

Variants of: B2
Experiment: as above
Settings: c terminus: a fixed tail appended

Protein stability index of substitutions, site by site:
K14: A 2.98 | G 3.11 | L 2.44 | D 3.08 | W 2.86 | C 3.08 | E 3.93 | V 2.48 | I 2.3 | F 2.91 | S 2.48 | R 2.18 | T 2.69 | H 2.57 | Q 2.4 | Y 2.14 | P 2.85 | M 2.82 | N 2.94
A11: S 2.75 | P 3.19 | C 2.29 | I 1.68 | G 3.09 | M 2.02 | L 3.27 | H 2.58 | Q 2.42 | T 2.43 | E 3.22 | K 2.6 | N 2.44 | R 2.79 | W 2.49 | Y 3.24 | V 2.79 | F 2.46 | D 3.02
D17: T 1.98 | F 1.16 | W 1.68 | Q 2.63 | R 1.82 | K 1.98 | I 1.8 | V 2.73 | A 2.28 | L 2.1 | E 2.81 | N 2.28 | M 2 | P 2.97 | Y 1.89 | H 2.15 | S 1.78 | C 2.09 | G 2.36
N18: Y 2.17 | A 2.53 | Q 2.5 | D 2.88 | W 2.17 | E 3.11 | H 2.02 | V 2.17 | C 2.3 | P 2.91 | K 2.56 | S 2.48 | L 2.48 | F 2.36 | G 2.41 | M 2.59 | R 2.44 | I 2.41 | T 3.21
K20: L 3.26 | V 2.14 | G 2.35 | R 2.37 | S 3.15 | F 1.69 | H 3.21 | Q 2.75 | E 2.74 | Y 1.41 | D 3.11 | C 2.23 | N 2.83 | I 1.3 | W 1.6 | P 2.37 | A 2.32 | T 2.47 | M 2.46
E12: Y 1.67 | R 2.83 | K 2.31 | V 2.52 | T 2.62 | D 2.5 | P 2.02 | M 1.6 | A 2.32 | F 2.29 | W 2.39 | H 2.14 | L 2.42 | N 2.29 | S 2.23 | C 2.11 | Q 2.31 | I 2.44 | G 2.05
C19: K 3.38 | G 3.06 | M 2.85 | I 2.55 | Q 2.77 | Y 2.61 | V 2.96 | E 3.06 | L 2.54 | S 3.27 | D 2.85 | A 2.98 | H 4.44 | N 3.7 | W 2.35 | F 1.85 | R 2.59 | P 3.71 | T 3.04
I21: M 3.12 | F 2.34 | G 3.08 | A 3.01 | D 3.86 | P 2.9 | K 2.68 | N 2.98 | H 2.76 | Y 2.93 | T 3.17 | Q 3.04 | W 3.17 | S 3.5 | L 2.29 | V 1.92 | E 2.92 | C 2.36 | R 3.56
Q24: N 2.95 | Y 2.05 | R 2.33 | G 2.75 | A 2.62 | F 2.17 | P 2.83 | S 2.27 | K 2.87 | E 3.17 | W 1.6 | D 2.81 | H 2.74 | I 2.36 | L 3.09 | V 2.42 | C 2.3 | T 2.77 | M 2.69
R22: N 2.61 | A 2.61 | F 2.04 | C 2.37 | K 2.42 | E 2.67 | I 2.58 | H 2.49 | D 3.13 | Y 2.59 | G 2.57 | Q 2.9 | V 2.6 | L 2.53 | W 1.74 | T 2.54 | P 3.02 | M 2.8 | S 3.44
R16: A 3.04 | N 2.7 | Y 2.65 | K 2.81 | C 2.48 | G 3.37 | I 2.34 | F 2.28 | L 3.07 | W 2.43 | P 2.87 | D 3.28 | E 3.04 | M 2.46 | Q 3.29 | T 2.67 | H 2.73 | S 2.41 | V 2.63
M13: I 2.85 | E 2.49 | A 2.95 | R 2.1 | L 2.35 | K 1.98 | F 2.5 | S 3.03 | W 2.5 | D 3.71 | V 2.52 | C 2.49 | Q 2.62 | G 3.49 | T 2.79 | N 3.5 | H 2.65 | P 3.11 | Y 2.62
Q10: W 1.73 | T 2.39 | V 2.67 | Y 2.17
I23: R 2.74 | D 3.38 | E 3.53 | P 3.24 | N 3.78 | L 2.87 | W 2.83 | G 3.25 | M 2.99 | T 3.19 | Q 3.52 | S 2.66 | K 2.93 | Y 2.98 | F 2.5 | A 3.51 | V 2.85 | C 2.9 | H 2.8
Q15: V 2.56 | L 2.32 | N 2.86 | M 1.86 | G 2.45 | R 2.64 | D 2.74 | K 2.15 | T 3.18 | W 3.09 | C 2.29 | A 2.23 | H 2.57 | I 2.17 | E 3.2 | Y 3.08 | F 2.01 | S 2.71 | P 2.85
